# According to PMC3181147 (Structure (London, England : 1993), 2010):
# B1: phosphorylated intracellular domain of PknB_(1-330) (kinase domain and juxtamembrane linker) (domain or fragment)
# chain: MTTPSHLSDRYELGEILGFGGMSEVHLARDLRLHRDVAVKVLRADLARDPSFYLRFRREAQNAAALNHPAIVAVYDTGEAETPAGPLPYIVMEYVDGVTLRDIVHTEGPMTPKRAIEVIADACQALNFSHQNGIIHRDVKPANIMISATNAVKVMDFGIARAIADSGNSVTQTAAVIGTAQYLSPEQARGDSVDARSDVYSLGCVLYEVLTGEPPFTGDSPVSVAYQHVREDPIPPSARHEGLSADLDAVVLKALAKNPENRYQTAAEMRADLVRVHNGEPPEAPKVLTDAERTSLLSSAAGNLSGPRTDPLPRQDLDDTDRDRSIGSVG
# Target: the molecule itself
# Test: AUC
protein,measurement,value
B1,Kd,~2.9 mM
